{"source": "paper PMC5138093", "about": "(Journal of molecular biology, 2016)", "target": "the molecule itself", "assay": "non-reducing SDS-PAGE and western blot"}
{"protein": "GST fusion of the extracellular domain of IGPR-1 (GST-E-IGPR-1) (domain or fragment, human, UniProt Q96BF3 23-150, looked up) LSVQQGPNLLQVRQGSQATLVCQVDQATAWERLRVKWTKDGAILCQPYITNGSLSLGVCGPQGRLSWQAPSHLTLQLDPVSLNHSGAYVCWAAVEIPELEEAEGNITRLFVDPDDPTQNRNRIASFPG", "values": [{"measurement": "binding result", "result": "binds"}]}
